Assay results from patent publication US20240132578A1.

Tests used:
Test in all cases: cell-based or functional assay
[1] = biological target: HIV-1 93UG077 Env (HIV-1)
[2] = biological target: HIV-1 APV13 Env (HIV-1)
[3] = biological target: HIV-1 APV17 Env (HIV-1)
[4] = biological target: HIV-1 Env of isolate MGRM-F1-014 (pseudovirus) (HIV-1)
[5] = biological target: HIV-1 JR-CSF Env D325A (HIV-1 isolate JR-CSF) (UniProt P20871)
[6] = biological target: HIV-1 JR-CSF Env N295A (HIV-1 (isolate JR-CSF, clade B)) (UniProt P20871)
[7] = biological target: HIV-1 JR-CSF Env N355A (HIV-1 isolate JR-CSF) (UniProt P20871)
[8] = biological target: HIV-1 JR-CSF Env P299A (HIV-1 (isolate JR-CSF, clade B)) (UniProt P20871)
[9] = biological target: HIV-1 JR-CSF Env T202A (HIV-1 (isolate JR-CSF)) (UniProt P20871)
[10] = biological target: HIV-1 JR-CSF Env V292A (HIV-1 (isolate JR-CSF, clade B)) (UniProt P20871)
[11] = biological target: HIV-1 JRFL Env (HIV-1)
[12] = biological target: HIV-1 MGRM-D-001 Env (HIV-1)
[13] = biological target: HIV-1 envelope glycoprotein (Env) of isolate JR-FL, on pseudovirus (HIV-1)
[14] = biological target: HIV-1 Env of isolate 92UG024 (Clade D) (HIV-1)
[15] = biological target: HIV-1 Env of isolate CMU02 (CRF01_AE) (HIV-1)
[16] = biological target: HIV-1 Env of isolate IAVI-C22 (Clade C) (HIV-1)
[17] = biological target: aMLV envelope (negative control)
[18] = biological target: HIV-1 92TH021 envelope glycoprotein (Env) on pseudovirus (HIV-1)
[19] = biological target: HIV-1 92UG005 envelope glycoprotein (Env) on pseudovirus (HIV-1)
[20] = biological target: HIV-1 92UG024 envelope glycoprotein (Env) on pseudovirus (HIV-1)
[21] = biological target: HIV-1 93IN905 envelope glycoprotein (Env) on pseudovirus (HIV-1)
[22] = biological target: HIV-1 93UG077 envelope glycoprotein (Env) on pseudovirus (HIV-1)
[23] = biological target: HIV-1 94UG103 envelope glycoprotein (Env) on pseudovirus (HIV-1)
[24] = biological target: HIV-1 APV17 envelope glycoprotein (Env) on pseudovirus (HIV-1)
[25] = biological target: HIV-1 APV6 envelope glycoprotein (Env) on pseudovirus (HIV-1)
[26] = biological target: HIV-1 CMU02 envelope glycoprotein (Env) on pseudovirus (HIV-1)
[27] = biological target: HIV-1 JRCSF envelope glycoprotein (Env) on pseudovirus (HIV-1) (UniProt P20871)
[28] = biological target: HIV-1 MGRM-AG-005 envelope glycoprotein (Env) on pseudovirus (HIV-1)
[29] = biological target: HIV-1 MGRM-C-027 envelope glycoprotein (Env) on pseudovirus (HIV-1)
[30] = biological target: HIV-1 MGRM-D-001 envelope glycoprotein (Env) on pseudovirus (HIV-1)
[31] = biological target: HIV-1 NL43 envelope glycoprotein (Env) on pseudovirus (HIV-1)
[32] = biological target: aMLV envelope protein on pseudovirus (negative control virus)
[33] = biological target: HIV-1 Env of pseudovirus MGRM-F1-013 (clade F) (HIV-1)
[34] = biological target: HIV-1 92TH021 envelope protein (Env) on pseudotyped virus (HIV-1 strain 92TH021)
[35] = biological target: HIV-1 94UG103 envelope protein (Env) on pseudotyped virus (HIV-1 strain 94UG103)
[36] = biological target: HIV-1 Env of isolate APV-6 (Clade B) (HIV-1)
[37] = biological target: HIV-1 NL43 envelope protein (Env) on pseudotyped virus (HIV-1 strain NL43)
[38] = biological target: HIV-1 envelope glycoprotein (Env) of isolate 94UG103 (HIV-1)
[39] = biological target: HIV-1 JR-CSF Env K305A (HIV-1 (isolate JR-CSF, clade B)) (UniProt P20871)

Chain of 1443_C16 (PG16) (TCN-116) (antibody) (VH): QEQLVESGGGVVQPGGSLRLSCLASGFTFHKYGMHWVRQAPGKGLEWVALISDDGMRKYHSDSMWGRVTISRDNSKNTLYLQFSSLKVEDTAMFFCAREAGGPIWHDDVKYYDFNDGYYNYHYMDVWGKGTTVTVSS
Chain of 1443_C16 (PG16) (TCN-116) (antibody) (VL): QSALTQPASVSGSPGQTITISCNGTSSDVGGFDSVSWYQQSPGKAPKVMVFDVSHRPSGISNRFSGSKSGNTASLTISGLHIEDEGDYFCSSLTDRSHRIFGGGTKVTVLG
Chain of PGT-143 (4980_N08) (antibody) (VH): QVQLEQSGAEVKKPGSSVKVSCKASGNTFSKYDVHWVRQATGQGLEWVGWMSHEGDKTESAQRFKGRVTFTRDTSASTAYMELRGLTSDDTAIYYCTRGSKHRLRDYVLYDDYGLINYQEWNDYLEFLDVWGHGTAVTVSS
Chain of PGT-143 (4980_N08) (antibody) (VL): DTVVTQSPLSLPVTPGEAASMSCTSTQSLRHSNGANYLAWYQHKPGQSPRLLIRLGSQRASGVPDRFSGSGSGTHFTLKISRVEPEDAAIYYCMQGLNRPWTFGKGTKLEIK
Chain of PGT-142 (4995_E20) (antibody) (VH): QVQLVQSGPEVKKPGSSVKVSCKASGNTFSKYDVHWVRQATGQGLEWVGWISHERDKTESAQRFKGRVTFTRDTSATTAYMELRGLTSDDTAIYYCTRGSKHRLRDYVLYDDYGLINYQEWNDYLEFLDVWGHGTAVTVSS
Chain of PGT-142 (4995_E20) (antibody) (VL): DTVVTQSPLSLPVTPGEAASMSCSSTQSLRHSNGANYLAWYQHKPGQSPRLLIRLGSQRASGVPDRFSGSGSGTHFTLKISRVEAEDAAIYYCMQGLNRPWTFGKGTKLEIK

5123_A06 (PGT-125) (antibody)
IC50, pseudovirus neutralization [1]: 0.0262 µg/mL
IC50, pseudovirus neutralization [2]: 0.0128 µg/mL
IC50, pseudovirus neutralization [3]: 7.31 µg/mL
IC50 (µg/mL), pseudovirus neutralization [4]: > 50 µg/mL
Fold IC50 increase relative to wild-type [5]: 0.4 fold
Fold IC50 increase relative to wild-type [6]: 0.8 fold
Fold IC50 increase relative to wild-type [7]: 1.2 fold
Fold IC50 increase relative to wild-type [8]: 0.2 fold
Fold IC50 increase relative to wild-type [9]: 0.8 fold
Fold IC50 increase relative to wild-type [10]: 3.3 fold
IC50, pseudovirus neutralization [11]: 0.0156 µg/mL
IC50, pseudovirus neutralization [12]: 2.31 µg/mL
IC50, pseudovirus neutralization [13]: 0.009 µg/mL

4E10 (antibody)
IC90 (neutralization of pseudovirus) [14]: 23.7 µg/mL
IC90 (neutralization of pseudovirus) [15]: 13.4 µg/mL
IC90 (neutralization of pseudovirus) [16]: 16.4 µg/mL
IC90 (neutralization of pseudovirus) [17]: > 50 µg/mL

PGT-143 (4980_N08) (antibody)
IC50, pseudovirus neutralization [18]: 0.0028 µg/mL
IC50, pseudovirus neutralization [19]: > 10 µg/mL
IC50, pseudovirus neutralization [20]: > 10 µg/mL
IC50, pseudovirus neutralization [21]: 0.0021 µg/mL
IC50, pseudovirus neutralization [22]: > 10 µg/mL
IC50, pseudovirus neutralization [23]: > 10 µg/mL
IC50, pseudovirus neutralization [24]: 0.618 µg/mL
IC50, pseudovirus neutralization [25]: 4.43 µg/mL
IC50, pseudovirus neutralization [26]: > 10 µg/mL
IC50, pseudovirus neutralization [27]: 0.0064 µg/mL
IC50, pseudovirus neutralization [28]: 0.244 µg/mL
IC50, pseudovirus neutralization [29]: 0.505 µg/mL
IC50, pseudovirus neutralization [30]: > 10 µg/mL
IC50, pseudovirus neutralization [31]: 0.585 µg/mL
IC50, pseudovirus neutralization [32]: > 10 µg/mL

2G12 (antibody)
IC90 (neutralization of pseudovirus) [14]: 7.57 µg/mL
IC90 (neutralization of pseudovirus) [15]: > 50 µg/mL
IC90 (neutralization of pseudovirus) [16]: > 50 µg/mL
IC50 [33]: > 50 µg/mL
IC90 (neutralization of pseudovirus) [17]: > 50 µg/mL

1443_C16 (PG16) (TCN-116) (antibody)
IC50, Neutralizing Antibody Assay, Virus/Ab Incubation 1 hour [34]: 0.136 µg/mL
IC50, Neutralizing Antibody Assay, Virus/Ab Incubation 18 hour [34]: 0.0435 µg/mL
IC50, Neutralizing Antibody Assay, Virus/Ab Incubation 1 hour [35]: 0.0211 µg/mL
IC50, Neutralizing Antibody Assay, Virus/Ab Incubation 18 hour [35]: 0.0085 µg/mL
IC90 (neutralization of pseudovirus) [14]: > 50 µg/mL
IC90 (neutralization of pseudovirus) [36]: 44.3 µg/mL
IC90 (neutralization of pseudovirus) [15]: > 50 µg/mL
IC90 (neutralization of pseudovirus) [16]: > 50 µg/mL
IC50, Neutralizing Antibody Assay, Virus/Ab Incubation 1 hour [37]: < 0.0025 µg/mL
IC50, Neutralizing Antibody Assay, Virus/Ab Incubation 18 hour [37]: 4.99 µg/mL
IC90 (neutralization of pseudovirus) [17]: > 50 µg/mL

PGV04 (antibody)
IC50 [38]: 0.202 µg/mL

1496_C09 (PG9) (TCN-109) (antibody)
IC50, Neutralizing Antibody Assay, Virus/Ab Incubation 1 hour [34]: 0.0612 µg/mL
IC50, Neutralizing Antibody Assay, Virus/Ab Incubation 18 hour [34]: 0.0571 µg/mL
IC50, Neutralizing Antibody Assay, Virus/Ab Incubation 1 hour [35]: 0.334 µg/mL
IC50, Neutralizing Antibody Assay, Virus/Ab Incubation 18 hour [35]: 0.0942 µg/mL
IC90 (neutralization of pseudovirus) [36]: 1.96 µg/mL
IC50 [33]: 0.56 µg/mL
IC50, Neutralizing Antibody Assay, Virus/Ab Incubation 1 hour [37]: 0.294 µg/mL
IC50, Neutralizing Antibody Assay, Virus/Ab Incubation 18 hour [37]: 38 µg/mL
IC50 [38]: 0.34 µg/mL

PGT-142 (4995_E20) (antibody)
IC50, pseudovirus neutralization [18]: 0.0022 µg/mL
IC50, pseudovirus neutralization [19]: > 10 µg/mL
IC50, pseudovirus neutralization [20]: > 10 µg/mL
IC50, pseudovirus neutralization [21]: 0.0017 µg/mL
IC50, pseudovirus neutralization [22]: > 10 µg/mL
IC50, pseudovirus neutralization [23]: > 10 µg/mL
IC50, pseudovirus neutralization [24]: 0.393 µg/mL
IC50, pseudovirus neutralization [25]: 5.42 µg/mL
IC50, pseudovirus neutralization [26]: > 10 µg/mL
IC50, pseudovirus neutralization [27]: 0.0085 µg/mL
IC50, pseudovirus neutralization [28]: 0.22 µg/mL
IC50, pseudovirus neutralization [29]: 0.272 µg/mL
IC50, pseudovirus neutralization [30]: > 10 µg/mL
IC50, pseudovirus neutralization [31]: 0.712 µg/mL
IC50, pseudovirus neutralization [32]: > 10 µg/mL

5147_N06 (PGT-130) (antibody)
IC50, pseudovirus neutralization [1]: > 10 µg/mL
IC50, pseudovirus neutralization [2]: 0.0345 µg/mL
IC50, pseudovirus neutralization [3]: > 10 µg/mL
Fold IC50 increase relative to wild-type [5]: > 1000 fold
Fold IC50 increase relative to wild-type [39]: 6.9 fold
Fold IC50 increase relative to wild-type [6]: 0.7 fold
IC50, pseudovirus neutralization [11]: 0.0346 µg/mL
IC50, pseudovirus neutralization [12]: > 10 µg/mL
